The target in this series is glutathione-S-transferase (UniProt P08515 P08515:1-218). The series can be described thus: EMSA; GST alone control. The following applies: tags: GST (pGEX-3X, Amersham-Pharmacia); label: 5'-32P; G4, antiparallel intramolecular. As to the method: Binding reactions are performed in a final volume of 10 µl, using 10 fmol of labelled oligonucleotide and various amounts of purified Gq1* in binding buffer: 20 mM Tris-HCl pH 7.5, 1 mM EDTA, 1 mM DTT, 6% glycerol, 100 µg/ml BSA, 1 µg/ml calf thymus DNA, 50 µM ZnCl_2 and KCl to 150 mM. Binding reactions are carried out at room temperature for 1 hour. The samples are loaded on a 8% polyacrylamide (acrylamide:bisacrylamide=33:1) non-denaturing gel. The buffer in the gel and for electrophoresis is 0.5 X TB buffer (Sambrook, J., Fritsch, E. F., & Maniatis, T. (1989) in Molecular Cloning, A Laboratory Manual, Cold Spring Harbor Laboratory Press, Cold Spring Harbor.). Electrophoresis is performed at 15 V/cm, for 2 hours, at 4° C. […] The bands are quantified using Imagequant software. The fraction of DNA that is bound and free is determined after normalization by summing the total number of counts in each lane (Senear D F, Brenowitz M (1991) J Biol Chem Jul 25;266(21):13661–71). To minimise any error due to perturbation of the equilibrium under electrophoretic conditions, the fraction of free DNA is measured at various protein concentrations rather than measuring the amount of complex formed (Cann J R (1989) J Biol Chem Oct 15;264(29):17032–40; Garner M M, Revzin A (1981) Nucleic Acids Res Jul 10;9(13):3047–60). […]
Chain of glutathione-S-transferase (P08515 whole entry, one chain of several): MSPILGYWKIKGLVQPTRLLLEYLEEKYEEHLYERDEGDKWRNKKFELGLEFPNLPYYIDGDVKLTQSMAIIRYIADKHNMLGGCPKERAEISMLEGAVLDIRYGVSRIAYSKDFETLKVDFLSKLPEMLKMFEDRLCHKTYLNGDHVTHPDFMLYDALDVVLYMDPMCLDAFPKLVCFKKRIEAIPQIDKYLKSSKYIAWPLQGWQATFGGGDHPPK
(In general: Mobility shift assays separate free from complexed probe on a gel.)

Consider GGTTAGGGTTAGGGTTAGGGTTAGGGTTAG (structured_DNA) [Htelo], for which the binding result is on record as “no binding”.

The values above are taken from patent US6492117, “Zinc finger polypeptides capable of binding DNA quadruplexes” (Gendaq Limited).
